According to article PMC6104945 (2018):

B1: NHBA_(312-427) (Neisserial heparin binding antigen, peptide 20, residues M312-D427) [Neisseria meningitidis (strain 2996)] / Fab 5H2 (Fab derived from the vaccine-elicited human monoclonal antibody 5H2) [human] (parent complex)
chain 1: MLAGTAVYNGEVLHFHTENGRPYPTRGRFAAKVDFGSKSVDGIIDSGDDLHMGTQKFKAAIDGNGFKGTWTENGGGDVSGRFYGPAGEEVAGKYSYRPTDAEKGGFGVFAGKKEQD
chain 2: not shown
chain 3: EIVMTQTPSSLSASVGDRVTITCRASQSISNYLNWYQQKPGTAPKLLTYAASSLGSGVPSRFSGSGSGTDLTLTISSLRPEDFATYYCQQSYGSPTFGQGTKLEIRRTVAAPSVFIFPPSDEQLKSGTASVVCLLNNFYPREAKVQWKVDNALQSGNSQESVTEQDSKDSTYSLSSTLTLSKADYEKHKVYACEVTHQGLSSPVTKSFNRGEC

Variants of: B1
Assay: SPR; Fab 5H2 captured on sensor chip, NHBA312-427 mutant injected; response read at end of injection (~48 s); read off a plot

Variant	response [RU]
chain 1 R28A, chain 1 K56A	~3
chain 1 E11A, chain 1 E114A	~51
chain 1 K56A	~58
chain 1 R28G, chain 1 K56A	~5
chain 1 R28G	~30
chain 1 D49A, chain 1 T54A	~42
chain 1 R28A	~2
